B1: peptide F4ab 148–160 [modified: FITC-Ahx on the N-terminus; FITC-Ahx on the N-terminus] [Escherichia coli] / porcine aminopeptidase N (APN), His-tagged whole protein [porcine] (parent complex)
chain 1: NASYAGVFGKGGV
chain 2: MAKGFYISKALGILGILLGVAAVATIIALSVVYAQEKNKNAEHVPQAPTSPTITTTAAITLDQSKPWNRYRLPTTLLPDSYNVTLRPYLTPNADGLYIFKGKSIVRLLCQEPTDVIIIHSKKLNYTTQGHMVVLRGVGDSQVPEIDRTELVELTEYLVVHLKGSLQPGHMYEMESEFQGELADDLAGFYRSEYMEGNVKKVLATTQMQSTDARKSFPCFDEPAMKATFNITLIHPNNLTALSNMPPKGSSTPLAEDPNWSVTEFETTPVMSTYLLAYIVSEFQSVNETAQNGVLIRIWARPNAIAEGHGMYALNVTGPILNFFANHYNTSYPLPKSDQIALPDFNAGAMENWGLVTYRENALLFDPQSSSISNKERVVTVIAHELAHQWFGNLVTLAWWNDLWLNEGFASYVEYLGADHAEPTWNLKDLIVPGDVYRVMAVDALASSHPLTTPAEEVNTPAQISEMFDSISYSKGASVIRMLSNFLTEDLFKEGLASYLHAFAYQNTTYLDLWEHLQKAVDAQTSIRLPDTVRAIMDRWTLQMGFPVITVDTKTGNISQKHFLLDSESNVTRSSAFDYLWIVPISSIKNGVMQDHYWLRDVSQAQNDLFKTASDDWVLLNVNVTGYFQVNYDEDNWRMIQHQLQTNLSVIPVINRAQVIYDSFNLATAHMVPVTLALDNTLFLNGEKEYMPWQAALSSLSYFSLMFDRSEVYGPMKKYLRKQVEPLFQHFETLTKNWTERPENLMDQYSEINAISTACSNGLPQCENLAKTLFDQWMSDPENNPIHPNLRSTIYCNAIAQGGQDQWDFAWGQLQQAQLVNEADKLRSALACSNEVWLLNRYLGYTLNPDLIRKQDATSTINSIASNVIGQPLAWDFVQSNWKKLFQDYGGGSFSFSNLIQGVTRRFSSEFELQQLEQFKKNNMDVGFGSGTRALEQALEKTKANIKWVKENKEVVLNWFIEHS
B2: peptide F4ac 200–218 [modified: FITC-Ahx on the N-terminus; FITC-Ahx on the N-terminus] [Escherichia coli] / porcine aminopeptidase N (APN), His-tagged whole protein [porcine] (parent complex)
chain 1: TKLFGSLSRNDILGQIQRV
chain 2: B1 chain 2
B3: peptide F4ad 200–218 [modified: FITC-Ahx on the N-terminus; FITC-Ahx on the N-terminus] [Escherichia coli] / porcine aminopeptidase N (APN), His-tagged whole protein [porcine] (parent complex)
chain 1: ARTELFGSLSKNDILGQIQ
chain 2: B1 chain 2

Variants of: B1
Assay: ELISA; parent: 30; read off a plot
For chain 1 NASYAGVFGKGAV [chain 1 G12A], the response was ~28 relative value APN/PBS at 450 nm.

Variants of: B2
Assay: ELISA; parent: 29; read off a plot
In the case of chain 1 TKLFGSLSRNDIAGQIQRV [chain 1 L13A], the response is reported as ~13 relative value APN/PBS at 450 nm. With chain 1 TKAFGSLSRNDILGQIQRV [chain 1 L3A] the response was ~73 relative value APN/PBS at 450 nm. In the case of chain 1 TKLFGSASRNDILGQIQRV [chain 1 L7A], the response is reported as ~6.5 relative value APN/PBS at 450 nm. With chain 1 TKLFGSLSRNDILAQIQRV [chain 1 G14A] the response was ~6.5 relative value APN/PBS at 450 nm. chain 1 TALFGSLSRNDILGQIQRV [chain 1 K2A] was tested, and the response was ~48 relative value APN/PBS at 450 nm. In the case of chain 1 TKLFGSLSRADILGQIQRV [chain 1 N10A], the response is reported as ~15 relative value APN/PBS at 450 nm. With chain 1 TKLFASLSRNDILGQIQRV [chain 1 G5A] the response was ~20 relative value APN/PBS at 450 nm. With chain 1 TKLFGSLARNDILGQIQRV [chain 1 S8A] the response was ~27 relative value APN/PBS at 450 nm. chain 1 TKLFGSLSRNDILGQIQAV [chain 1 R18A] was tested, and the response was ~6.5 relative value APN/PBS at 450 nm.

Variants of: B3
Assay: ELISA; parent: 55; read off a plot
chain 1 ERTELFGSLSKNDILGQIQ [chain 1 A1E] was tested, and the response was ~53 relative value APN/PBS at 450 nm.

Source: article PMC5828407 (2018)
